The results in this text go back to US20250019448A1 (BIOCOMPLETE, published 2025).

The labels stand for the following.
B1: #47 antibody (IgG form) (antibody, V domains shown)
VH: QVQLVQSGGGVVQPGSSLRLSCEASGFAIGDNALNWVRQAPGKGLEWVGYIRSNSYGGTAEYAASVKGRFTISKDESKNIAYLEMNSLRAEDTAVYYCARRAHYYDGSTYNPSWYFDLWGRGTLVTVSS
VL: EIVLTQSPSFLSASVGDRVTITCRASQDISRRLAWYQQKPGKAPKLLIYGASNLASGVPSRFTGSGSGTEFTLTISSLQPDDFATYYCQQGYSSPRTFGQGTKVDIK
B2: #40 antibody (IgG form) (antibody, V domains shown)
VH: QVQLVQSGGGVVQPGSSLRLSCEASGFAIGDNALNWVRQAPGKGLEWVGYIRSNSYGGTAEYAASVKGRFTISRDESKNIAYLEMNSLRAEDTAVYYCARRAHYYGGSTYNPSWYFDLWGRGTPVTVSS
VL: EIVLTQSPSFLSASVGDRVTITCRASQDISRRLAWYQRKPGKAPKLLIYGASNLASGVPSRFTGSGSGTEFTLTISSLQSDDFATYYCQQGYSSPRTFGQGTKVDIK
B3: #42 antibody (IgG form) (antibody, V domains shown)
VH: QVRLVQSGAEVKKPGASVKVSCRASGYTFASYDIHWVRQAPGQGPEWMGMINPAGGSTLYAEGFEGRLTMTRDRSMSTAYMELSSLRSEDTAVYYCARTPSQTYELDYWGQGTLVTVSS
VL: ETTLTQSPSSLSASVGDRVTITCRASQGIRNDLAWYQQKPGKAPKLLIYAASTLESGVPPRFSGSGSETDFTLTLIRLQPDDFATYYCLQSFSTPYTFGQGTQLTVL

This experiment has as its target T1, SMO (smoothened) protein (Homo sapiens (Human), UniProt Q99835 28-787).
T1 construct: Endogenous SMO on HCT116 and SKOV3 cancer cells; also called SMO in HCT116 cells; SMO receptor
Description: flow cytometry on HCT116 cells, 10 µg antibody, Alexa 594 secondary antibody. On the procedure: The binding affinity of the SMO-binding antibodies in HCT116 colon cancer cells was analyzed by flow cytometry. After blocking the HCT116 cells with BSA for 30 minutes, 10 μg of the SMO-binding antibody was bound and incubated for 1 hour at room temperature. One hour later, the cells were washed with PBS, reacted with 2 μL of Alexa 594 secondary antibody, and then incubated for 1 hour at room temperature. One hour later, the cells were washed with PBS to remove non-specific binding, and the binding ability of the SMO-binding antibodies was analyzed by flow cytometry.
B1: the binding result is listed as “binds”.
Turning to B2, the binding result was “binds”.
To B3 belongs “binds”.
